Data on 3 molecules can be found in patent US20060251650A1 (CHILDREN S MEDICAL CENTER, published 2006).

As usually defined, the Kd is the free concentration of one partner at which half of the binding sites on the other are occupied at equilibrium, for simple one-to-one binding. Lower therefore signals tighter binding.

Experiment [1] concerns the target T1, Human VEGF165R/NP-1 (neuropilin-1) (human, UniProt O14786 22-923).
T1 construct: Expressed from the human cDNA in PAE cells (PAE/NP-1, PAE/KDR/NP-1) and COS-7 cells; also called clone A2
The experiment is described as follows: 125I-VEGF121 binding and chemical cross-linking to PAE/NP-1 cells, SDS-PAGE and autoradiography, 1 µg/ml heparin. The source says:
The cells were lysed and proteins were resolved by 6% SDS-PAGE.

For experiment [2], the target named is T1, Human VEGF165R/NP-1 (neuropilin-1). The experiment is described as follows: cell-based or functional assay.
Experiment [3] concerns the target T2, Rat neuropilin-1 on AT3.1 Dunning rat prostate carcinoma cells (rat, UniProt Q9QWJ9 22-922).
T2 construct: whole, on cells; also called VEGF165R/NP-1 (AT3.1 cells)
Put plainly: 125I-VEGF165 cross-linking to AT3.1 rat prostate carcinoma cells.

Experiment [4] has as its target T1, Human VEGF165R/NP-1 (neuropilin-1). The experiment is described as follows: Scatchard analysis (LIGAND program) of 125I-VEGF165 binding to PAE/NP-1 cells.
Protocol: FIGS. 7A and 7B show a Scatchard Analysis of VEGF₁₆₅ binding to VEGF₁₆₅R/NP-1. […] Increasing amounts of ¹²⁵I-VEGF₁₆₅ (0.1-50 ng ml) were added to subconfluent cultures of PAE cells transfected with human VEGF₁₆₅R/NP-1 cDNA (PAE/NP-1 cells) in 48 well dishes. Non-specific binding was determined by competition with a 200-fold excess of unlabeled VEGF₁₆₅. After binding, the cells were washed, lysed and the cell-associated radioactivity was determined using a counter.
The specific activity ranged from 40,000-100,000 cpm/ng protein. […] VEGF binding was quantitated by measuring the cell-associated radioactivity in a y-counter (Beckman, Gamma 5500). The counts represent the average of three wells. All experiments were repeated at least three times and similar results where obtained.
The target of experiment [5] is T3, Human NP-2 (neuropilin-2) (human, UniProt O60462 21-931).
T3 construct: The open reading frame has 931 amino acids
T3 sequence: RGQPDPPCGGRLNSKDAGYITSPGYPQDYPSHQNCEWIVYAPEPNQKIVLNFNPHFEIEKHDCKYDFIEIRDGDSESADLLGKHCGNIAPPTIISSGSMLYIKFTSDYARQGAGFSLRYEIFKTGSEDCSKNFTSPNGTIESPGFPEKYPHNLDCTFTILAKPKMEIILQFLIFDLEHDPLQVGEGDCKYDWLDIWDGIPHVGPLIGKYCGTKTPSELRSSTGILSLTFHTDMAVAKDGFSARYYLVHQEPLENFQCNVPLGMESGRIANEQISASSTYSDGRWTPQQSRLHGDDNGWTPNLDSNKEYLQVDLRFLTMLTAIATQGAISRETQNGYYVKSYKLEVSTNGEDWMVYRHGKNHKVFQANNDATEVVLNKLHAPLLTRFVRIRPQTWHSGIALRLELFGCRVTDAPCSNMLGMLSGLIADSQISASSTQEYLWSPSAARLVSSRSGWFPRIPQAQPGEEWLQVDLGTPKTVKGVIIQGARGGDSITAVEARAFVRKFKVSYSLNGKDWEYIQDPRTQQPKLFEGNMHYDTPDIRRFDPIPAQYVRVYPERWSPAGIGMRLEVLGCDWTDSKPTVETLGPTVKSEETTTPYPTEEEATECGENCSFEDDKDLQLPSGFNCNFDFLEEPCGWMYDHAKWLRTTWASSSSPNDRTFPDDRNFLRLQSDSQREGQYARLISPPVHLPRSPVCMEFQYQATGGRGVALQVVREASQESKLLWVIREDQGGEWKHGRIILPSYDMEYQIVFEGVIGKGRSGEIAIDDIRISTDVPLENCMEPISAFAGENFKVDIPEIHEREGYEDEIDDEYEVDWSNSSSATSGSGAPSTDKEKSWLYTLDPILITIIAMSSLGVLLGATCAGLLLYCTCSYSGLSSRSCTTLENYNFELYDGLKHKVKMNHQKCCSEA
Put plainly: expression cloning: COS-7 cells transfected with single cDNA clones, screened for 125I-VEGF165 binding; seven positive clones, of which this one is NP-2.
Protocol: Seven positive DNA pools were identified and DNA from one of the positive pools was used to transform E. coli. The E. coli were sub-divided into 50 separate pools and plated onto 50 LB ampicillin dishes, with each pool representing approximately 100 clones. DNA made from these pools was transfected into COS-7 cells which were screened for ¹²⁵I-VEGF₁₆₅ binding as described above. […] Each pool was plated onto separate LB ampicillin dishes and DNA was prepared from 96 individual colonies and screened in a 96-well two dimensional grid for ¹²⁵I-VEGF₁₆₅ binding to transfected COS-7 cells as described above. […] The seven positive plasmid clones where amplified and their DNA was analyzed by restriction enzyme digestion. […] One clone from each group was submitted for automated DNA sequencing.
E. coli transformed with the plasmid library were divided into pools. The DNA prepared from each pool were transfected into COS-7 cells in separate wells and individual cells were screened for the ability to bind ¹²⁵I-VEGF₁₆₅ as detected by autoradiography of monolayers overlayed with photographic emulsion (FIG. 2A).

The next experiment has as its target T4, KDR (UniProt P35968 20-1356, limits assumed).
T4 construct: whole, on cells; also called KDR/Flk-1
Put plainly: 125I-collapsin-1 binding to PAE/KDR cells.

T4 sequence (P35968 20-1356 limits assumed): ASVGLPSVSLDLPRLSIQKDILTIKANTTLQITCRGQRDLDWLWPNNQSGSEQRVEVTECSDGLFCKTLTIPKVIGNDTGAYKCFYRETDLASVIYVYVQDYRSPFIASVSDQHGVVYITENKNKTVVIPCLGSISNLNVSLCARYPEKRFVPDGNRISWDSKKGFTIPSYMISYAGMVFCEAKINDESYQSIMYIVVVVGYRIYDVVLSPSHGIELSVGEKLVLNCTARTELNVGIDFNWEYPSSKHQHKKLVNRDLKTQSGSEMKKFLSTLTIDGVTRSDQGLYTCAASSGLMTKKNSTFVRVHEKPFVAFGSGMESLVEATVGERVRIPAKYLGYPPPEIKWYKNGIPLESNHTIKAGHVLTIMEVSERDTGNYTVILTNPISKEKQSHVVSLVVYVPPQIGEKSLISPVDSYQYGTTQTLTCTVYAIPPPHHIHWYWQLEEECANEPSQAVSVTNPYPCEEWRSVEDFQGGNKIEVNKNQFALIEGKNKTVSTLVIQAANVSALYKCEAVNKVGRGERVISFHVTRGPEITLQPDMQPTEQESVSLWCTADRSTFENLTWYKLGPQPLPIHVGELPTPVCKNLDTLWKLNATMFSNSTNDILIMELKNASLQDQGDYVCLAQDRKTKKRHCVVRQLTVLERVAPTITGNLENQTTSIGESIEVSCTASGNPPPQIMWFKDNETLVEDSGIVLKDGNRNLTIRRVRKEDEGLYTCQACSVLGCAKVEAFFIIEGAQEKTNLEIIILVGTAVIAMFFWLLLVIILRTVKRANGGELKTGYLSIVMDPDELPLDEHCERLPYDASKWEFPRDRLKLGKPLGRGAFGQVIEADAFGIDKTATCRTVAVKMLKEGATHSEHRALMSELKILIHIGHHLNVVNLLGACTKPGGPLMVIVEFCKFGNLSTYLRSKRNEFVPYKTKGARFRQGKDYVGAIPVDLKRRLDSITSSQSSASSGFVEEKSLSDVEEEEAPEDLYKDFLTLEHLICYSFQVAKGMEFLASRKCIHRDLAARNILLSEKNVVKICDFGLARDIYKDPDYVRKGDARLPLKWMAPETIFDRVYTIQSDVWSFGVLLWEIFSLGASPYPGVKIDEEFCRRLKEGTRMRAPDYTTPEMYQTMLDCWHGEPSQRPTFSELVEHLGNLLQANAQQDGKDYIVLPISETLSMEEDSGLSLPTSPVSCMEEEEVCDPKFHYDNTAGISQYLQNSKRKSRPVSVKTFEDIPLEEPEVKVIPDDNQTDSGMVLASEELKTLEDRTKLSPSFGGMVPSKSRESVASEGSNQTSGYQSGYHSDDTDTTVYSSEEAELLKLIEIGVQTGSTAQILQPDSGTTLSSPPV

B1: Human recombinant VEGF121 (ligand, UniProt P15692-9 27-147, looked up)
chain: APMAEGGGQNHHEVVKFMDVYQRSYCHPIETLVDIFQEYPDEIEYIFKPSCVPLMRCGGCCNDEGLECVPTEESNITMQIMRIKPHQGQHIGEMSFLQHNKCECRPKKDRARQEKCDKPRR
modifications: radio-iodinated (125I) using IODO-BEADS in the cross-linking experiments
notes: mature
As to B1, in experiment [1], the binding result is recorded as “no binding (tested: 10 ng/ml)”.

B2: Human recombinant VEGF165 (ligand, UniProt P15692-4 27-191, looked up)
chain: APMAEGGGQNHHEVVKFMDVYQRSYCHPIETLVDIFQEYPDEIEYIFKPSCVPLMRCGGCCNDEGLECVPTEESNITMQIMRIKPHQGQHIGEMSFLQHNKCECRPKKDRARQENPCGPCSERRKHLFVQDPQTCKCSCKNTDSRCKARQLELNERTCRCDKPRR
modifications: radio-iodinated (125I) using IODO-BEADS in the binding and cross-linking experiments
notes: mature
With B2, in experiment [2], the “stimulation of 231 breast carcinoma cell motility, Boyden chamber, VEGF165 50 ng/ml” value is 2 fold. For the same molecule, the binding result in experiment [3] and in experiment [5] was “binds” each time. The molecule also returned a Kd in experiment [4] of roughly 0.32 nM.

B3: Recombinant chick collapsin-1 (semaphorin III) (ligand, UniProt Q90607 23-772, looked up)
chain: QHVKNNVPRLKLSYKEMLESNNIVNFNGLANSSSYHTFLLDEERSRLYVGAKDHIFSFNLVNIKEYQKIVWPVSHSRRDECKWAGKDILRECANFIKVLKTYNQTHLYACGTGAFHPMCTYIEVGSHPEDNIFRMEDSHFENGRGKSPYDPKLLTASLLVDGELYSGTAADFMGRDFAIFRTLGHHHPIRTEQHDSRWLNDPRFISAHLIPESDNPEDDKIYFFFRENAIDGEHTGKATHARIGQICKNDFGGHRSLVNKWTTFLKARLICSVPGPNGIDTHFDELQDVFLMNSKDPKNPIVYGVFTTSSNIFKGSAVCMYSMTDVRRVFLGPYAHRDGPNYQWVPYQGRVPYPRPGTCPSKTFGGFDSTKDLPDEVITFARSHPAMYNPVFPINSRPIMIKTDVDYQFTQIVVDRVDAEDGQYDVMFIGTDIGTVLKVVSIPKETWHELEEVLLEEMTVFREPTVISAMKISTKQQQLYIGSATGVSQLPLHRCDVYGKACAECCLARDPYCAWDGSSCSRYFPTAKRRTRRQDIRNGDPLTHCSDLQHHDNPSGQTLEEKIIYGVENSSTFLECSPKSQRAIVYWQFQKQNDDHKVEIKVDDRMIRTEQGLLLRSLQRRDSGIYFCHAVEHGFIQTLLKVTLEVIDTDHLEELLHKEEDADASKTKDATNSMTPSQKIWYRDFMQLINHPNLNTMDEFCEQVWKRDRKQRRQRPANAQVNTNKWKHLQENKKGRNRRTHEFERAPRSV
modifications: 125I-labelled in the binding studies
As to B3, in the experiment with KDR, the binding result was “no binding”.
